Experimental data published in US20100272644A1 (UNIVERSITY OF THE SCIENCES IN PHILADELPHIA, published 2010).
Ends that are not written are not given here. fluorescein = fluorescein conjugated to the primary amine of the Lys side chain through an MHS ester

Molecular target: defatted HSA (human serum albumin) (human, UniProt P02768 25-609)
Assay: native acrylamide gel shift, fluorescein-labeled peptide (25 pmol) with defatted HSA (100 pmol)

binding result: binds
B1: fatty acid-conjugated faTraE peptide (peptide)
peptide: CHLDAHWK(fluorescein)G
modifications: not fully specified (residue 1)
notes: also called fatty acid-modified peptide; HOOC-(CH2)15-S-S-peptide
